The data set in a line: label from the status in PepcDB records.
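Also: failed if final PepcDB status was selected cloned or expressed and not failed if soluble or beyond.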

Turning to “NIVEWLGDRSLAVLAAIANKFRGSEQETLEPQLDEFVEDKVSTKHVEDDQQDDETLPHLTAYEVEEPKEKAAVHEYPIYMPQAKSETSAVKPTPEPQPQRVAAVNATPTYVEPEPQLKAVSTDNVDPMVERTKQLNVTIEELEAAAQQADDWASEEQTSQSYADTNAVYQEQVQAKHEEVVEHDTPQLESSYAEYAQFAAQQEQQLHVEPTPHEEPVIDTRALDDITDHAEPSEHIEPTISDFDVVDEEETYVAPQPQSRSPEPQPMVQPQSVSQIQPEQAPEPSVAFEPAPQEVEVEEVQDGDQDVAAFQSMVSSAQAKVAATQNPFLMKQEQNLPVPEEPLPTLELLYHPEKRENFIDREALEQVARLVESKLADYKIKADVVGIYPGPVITRFELDLAPGVKVSRISGLSMDLARALSAMAVRVVEVIPGKPYVGLELPNMSRQTVYLSDVISSPQFEQAKSPTTVVLGQDIAGEAVIADIAKMPHVLVAGTTGSGKSVGVNVMILSMLYKASPEDLRFIMIDPKMLELSIYEGIPHLLAEVVTDMKDASNALRWCVGEMERRYKLMSALGVRNVKGFNEKLKMAAEAGHPIHDPFWQEGDSMDTEPPLLEKLPYIVVVVDEFADLMMVVGKKVEELIARLAQKARAAGIHLILATQRPSVDVITGLIKANIPTRVAFTVSTKTDSRTILDQGGAESLLGMGDMLYLPPGSSHTIRVHGAFASDDDVHAVVNNWKARGKPNYIDEIISGDQGPESLLPGEQMESDEEMDPLFDQVVEHVVQSRRGSVSGVQRRFKIGYNRAARIVEQLEAQGIVSAPGHNGNREVLAPAPPKD”, the protein production entry is reported as “failed”. To “NLKDVYVSIADYEGDEETAGFQEGVSMEVLERNPNGWWYCQILDGVKPFKGWVPSNYLEKKN” belongs “not failed”; to “NPVILADLDDTLFQTRRKMVDELALAPYKTGALDRSLAPRSFMTQEQAMLVDWMLEHADLIPVTARGTEEMSRVTIPFHSWAITTHGAVVLTPEKVADEQWQHHITQSLTPYKQPLLRLQQSITQLMAERNIDGWARINYEYDDLPIYLVMKHNDSARLDELYAIGDEIEKIFSTKGFYIHRNSNNIAWLPEPIEKGKAVTYLLNKLKAERGVFPVIGFGDSLSDHRFMKLCN”, “not failed”; to “NQLLGMHQIEKEMTQYFGIQRCIVVAGDSDIQKKVLSDFGDVLTNTLNLLLPNGENTIAVMGGTTMAMVAENMGSLETEKRHNLFVPARGGIGEAVSVQANSISAVMANKTGGNYRALYVPEQLSRETYNSLLQEPSIQEVLTLISHANCVVHSIGRALHMAARRKMSDDEMVMLKQKNAVAESFGYFFDEEGKVVYKIPRIGLQLKNLQEIPYVVAIAGGKTKAKAIRAYMKNAPKQTWLITDEAAANEILK”, “not failed”. To “NQLLTQQANEDGLTKLFNRRYIDQKLDSMVAWHGRHHMPMAMILLDVDFFKPFNDNYGHIEGDRCLQAIANQLKATFCRSGEYVGRYGGEEFVVLLSSTDAQTAEREAERIQEAMYFLDYQHEFSSVANRVTVSQGVFVFQPTGKENQADLYATADRALYTSKSLGRNTYTMVNAS” belongs “not failed”.

Take “NRDSLFNDPNAPVLGNPEGDVTVVEFFDYNCPYCRRAMAEVQGLVDADPNVRLVYREWPILGEGSDFAARAALAARQQGKYEAFHWALMGMSGKANETGVLRIAREVGLDTEQLQRDMEAPEVTAHIAQSMALAQKLGFNGTPSFVVEDALVPGFVEQSQLQDAVDRARKAA”: the protein production entry is “not failed”.

Take “NRLPDAVVTVYPTFNSLQMLAHALRMPYHDMRIVSLTGRPWHEFDRALIERAEKIGILTDHEHTPSAIAMRMLDYGYEDYTMSVGTRMGNPQEQCLDTFSLREAADRDFERPNCVILSATRPFVCSRAPLGLSESAFMPLNGRTKMITKMPFRLVSLSCLELHRASSFWDIGFCTGSVSIEAKLNFPHLHITAFEIRPEGAELMPVNSRRFGAPGIAYRIGDFMEEDISSLAPPDAVFIGGHGGRLVEMIAKVHSVMTKGGLLVFNSVSEESRHLFLTGIEACGMELLSSIRLTADGNNPIDILQARKKE”: the protein production result is given as “not failed”. To “NSGKRLIQRSIERALDFRKEVQRLREESDGWFFDIWQPEAVDKAECWPVAPGEDWHGFKDADADHMYLDPVKVTILTPGMDEQGNMDEEGIPAALVAKFLDERGVVVEKTGPYNLLFLFSIGIDKTRAMGLLRGLTEFKRAYDLNLRVKNMLPDLYAEDPDFYRNMRIQDLAQGIHRLIRQHQ” belongs “failed”; to “NTLRELRLFLRDVTKRLATDKRFNIFSKPVSDYLEVIKEPMDLSTVITKIDKHNYLTAKDFLKDIDLICSNALEYNPDKDPGDKIIRHRACTLKDTAHAIIAAELDPEFNKLCEEIKE”, “not failed”; to “PATCPIVPGQEMIIEISKGRSGLGLSIVGGKDTPLNAIVIHEVYEEGAAARDGRLWAGDQILEVNGVDLRNSSHEEAITALRQTPQKVRLVVYRDEAHYRDEE”, “not failed”. Regarding “PCYDNTFANTCAECQQLIGHDSRELFYEDRHFHEGCFRCCRCQRSLADEPFTCQDSELLCNDCYCSAFS”, the protein production result is recorded as “not failed”. Regarding “PDQCKPPQVTCRSATCAQVNWEVPLSNGTDVTEYRLEWGGVEGSMQICYCGPGLSYEIKGLSPATTYYCRVQALSVVGAGPFSEVVACVTPPS”, the protein production entry is recorded as “not failed”. To “PEAMLIVDQNGQIVFSNSRCQQLFGYDAKAMLALQIETLLPEELRHLHTGERLDFLREGRDRPMASARHVRALKSDGGEFVAEIALSILPSDFD” belongs “failed”; to “PEQLRSTVRIGTIDSIVQAWLPRFIERVRELYPGLTLDLNVDTSRGIAREIVERKIDLALLMGPVLEAGLRNVDLGSMDCAWVAAPGFGLGGRRIGLADLVDLPILTFSRNSDPHVWLMRQFEELRLPQPAISNSNSLSAML”, “failed”; to “PFMDQSGGGVTFCGGEPLLHPEFLIDILKRCGQQGIHRAVDTTLLARKETVDEVMRNCELLLIDLKSMDSTVHQTFCDVPNELILKNIRRVAEADFPYYIRIPLIEGVNADEKNIKLSAEFLASLPRHPEIINLLPYHDIGKGKHAKLGSIYNPKGYKMQTPSEEVQQQCIQILTDYGLKATIGG”, “not failed”. To “PGRPTMMISTTAMNTALLQWHPPKELPGELLGYRLQYCRADEARPNTIDFGKDDQHFTVTGLHKGTTYIFRLAAKNRAGLGEEFEKEIRTPEDL” belongs “not failed”; to “PHRAVVNFLLSMTNQPGINAGDRLLAVTSISFDISVLELFLPLISGASLVLADSEAAADGQALIKLAMHQDVTFIQATPSNYWLMLEAGWPSTLKLKVLCGGEALPPVLAQKLLQRSDSVWNMYGPTETTIWSAISRVTGSASTLGRP”, “failed”. In the case of “PIIFVPGIMGSRLKFAKGKKQGTRAWDPDSSGFMFLNYGRFDVSAKKKKALLVGPEFDPDYLEVDTNNPKLDKSFLRRYPRADKRGWGGVMWGSYGPILRALHDHQWEEPVGHCFEFPVHAFGYNWTASNMEAGRKLKEYIGATIDHYAKGLRDEAGRPLERLCTRVILVTHSMGGLVARSACVLHGAAEKVLGVVHGVQPATGSPAAYWRMK” it was “failed”; in that of “PISRLAQIQQARKEKEPDYILLSERGMPRRREFVMQVKVGNEVATGTGPNKKIAKKNAAEAMLLQLGYKASTSLQD”, “not failed”. Take “PKKPGTGKHIVYFPGANTYYQACFRDISTACKETGATVHAFNFPGTGLSSGKVREANDLINAGISVVSSLIKQGVHPDDIILQGDCYGASIALEVKKQLEDQ”: the protein production entry was “failed”. In the case of “PKPLKNLDGQFCEICGDQIGLTVEGDLFVACNECGFPACRPCYEYERREGTQNCPQCKTRYKRLRGSPRVEGDEDEEDID” it was “not failed”; in that of “PKSQACEPSEPEIEIKLPKLRTLDVFSGCGGLSEGFHQAGISDTLWAIEMWDPAAQAFRLNNPGSTVFTEDCNILLKLVMAGETTNSRGQRLPQKGDVEMLCGGPPCQGFSGMNRFNSRTYSKFKNSLVVSFLSYCDYYRPRFFLLENVRNFVSFKRSMVLKLTLRCLVRMGYQCTFGVLQAGQYGVAQTRRRAIILAAAPGEKLPLFPEPLHVFAPRACQLSVVVDDKKFVSNITRLSSGPFRTITVRDTMSDLPEVRNGASALEISYNGEPQSWFQRQLRGAQYQPILRDHICKDMSALVAARMRHIPLAPGSDWRDLPNIEVRLSDGTMARKLRYTHHDRKNGRSSSGALRGVCSCVEAGKACDPAARQFNTLIPWCLPHTGNRHNHWAGLYGRLEWDGFFSTTVTNPEPMGKQGRVLHPEQHRVVSVRECARSQGFPDTYRLFGNILDKHRQVGNAVPPPLAKAIGLEIKLCML”, “failed”. Turning to “PLKEQKVINTANITTNSKLDLAEYENGLMNIAKEQFDTENHVLQLNQYIPEKLVDELVAKVKAPVLTNIIEQDYFGKQNSNELSLSGVMIGLAMSSSVSNEEAMSKGTEVANQLIEAIHKNDKYNKSPITFAIFKQESTSSLKNGTYIASATVQKNDTNIGNWNAIEEKAYSYPSDEFTQAHGEDNTKIDDFAKEMKGFSPGDFIPVNAKVSYKKNQMDTLNMNIVIKYNGKTELMALTQLAAQIMLEQLPKDAKVQLQIKSENKIEAIVIKEKNSDKPFV”, the protein production entry was “not failed”. With “PLKEQKVINTANITTNSKLDLAEYENGLMNIAKEQFDTENHVLQLNQYIPEKLVDELVAKVKAPVLTNIIEQDYFGKQNSNELSLSGVMIGLAMSSSVSNEEAMSKGTEVANQLIEAIHKNDKYNKSPITFAIFKQESTSSLKNGTYIASATVQKNDTNIGNWNAIEEKAYSYPSDEFTQAHGEDNTKIDDFAKEMKGFSPGDFIPVNAKVSYKKNQMDTLNMNIVIKYNGKTELMALTQLAAQIMLEQLPKDAKVQLQIKSENKIEAIVIKEKNSDKPFVSFL”, the protein production entry was “not failed”.

Take “PNRRADDNATIRVTNLSEDTRETDLQELFRPFGSISRIYLAKDKTTGQSKGFAFISFHRREDAARAIAGVSGFGYDHLILNVEWAKPSTN”: the protein production result was “not failed”. With “PPLEINSRVSLKVGETIESGTVIFCDVLPGKESLGYFVGVDMDNPIGNWDGRFDGVQLCSFACVESTILLHINDIIPES”, the protein production result is “not failed”. In the case of “PPPAPIPDLKVFEREGVQLNLSFIRPPENPALLLITITATNFSEGDVTHFICQAAVPKSLQLQLQAPSGNTVPARGGLPITQLFRILNPNKAPLRLKLRLTYDHFHQSVQEIFEVNNLPVESWQ” it was “not failed”; in that of “PQEKLKLLAFTGTKGKTTAAYFAYHMLKESYKPAMFSTMNTTLDGKTFFKSQLTTPESLDLFAMMAECVTNGMTHLIMEVSSQAYLVDRVYGLTFDVGVFLNISPDHIGPIEHPTFEDYFYHKRLLMENSRAVVINSGMDHFSFLADQVADQEHVFYGPLSDNQITTSQAFSFEAKGQLAGHYDIQLIGHFNQENAMAAGLACLRLGASLADIQKGIAKTRVPGR”, “failed”.

For the sequence “PQLVRTHEDVPGPVGHLSFSEILDTSLKVSWQEPGEKNGILTGYRISWEEYNRTNTRVTHYLPNVTLEYRVTGLTALTTYTIEVAAMTSKGQGQVSASTISSGVPP”, the protein production result was “not failed”. Consider “PRSRTKISLEALGILQSFIHDVGLYPDQEAIHTLSAQLDLPKHTIIKFFQNQRYHVKH”, for which the protein production result was “not failed”.

As to “PRWSVAAATAVTDFCDRLACDRVALGRRHRRRSKVVSLSHSGNFQRSSELVQRIADAMDEAIDQGEPIRMPQDSDNTLTLTAAHQELIHSGVPRAVLTVLLRRDGRVTGAMVLERGGNNPFRDEEVELVEAVAGILGPVLEEKRLNDR”, the protein production entry was “failed”.

Values taken from a protein production outcome set (Wang et al. 2014).
